± gives the standard deviation of the averaged measurements.

We go through 35 sequences from the supplement of paper PMC10724198.

Experiment in all cases: protein stability index of tFT-peptide fusion (C-terminal peptide) (PSI (0-1 scale)); higher = more stable (slower turnover)
For data set [1], the system named is Saccharomyces cerevisiae. As to conditions: temperature: 30 C. The protocol:
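MPS profiling in S. cerevisiae of the yeast C-terminome library: the last 12 aa of each annotated ORF are fused to the C-terminus of a sfGFP-mCherry timer, after a GGGS linker. Cells are FACS-sorted into 8 mCherry/sfGFP bins and deep-sequenced. PSI runs from 0 (unstable) to 1 (stable); wild type and das1Δ backgrounds, two technical replicates each.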

The test system of data set [2] is Saccharomyces cerevisiae. As to conditions: genetic background: wild type; temperature: 30 C.
In data set [3] the test system is Saccharomyces cerevisiae. Here is the method: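 MPS profiling in S. cerevisiae of the tFT-X12 degron library: putative degron peptides plus stable controls, 12 aa, fused to the C-terminus of a sfGFP-mCherry timer. Cells are FACS-sorted into 8 mCherry/sfGFP bins and deep-sequenced. PSI runs from 0 (unstable) to 1 (stable). Backgrounds are wild type, das1Δ and doa10Δ at 30 °C, and wild type, das1Δ, cdc34-1 and cdc53-1 at 37 °C; 2-3 technical replicates each.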

The mark [4] stands for this setting: genetic background: das1 deletion.
[5] abbreviates: genetic background: cdc34-1, temperature: 37 C.
Where [6] appears, read: genetic background: cdc53-1, temperature: 37 C.
Where [7] appears, read: genetic background: das1 deletion, temperature: 30 C.
Where [8] appears, read: genetic background: das1 deletion, temperature: 37 C.
Where [9] appears, read: genetic background: doa10 deletion, temperature: 30 C.
[10] abbreviates: genetic background: wild type, temperature: 30 C.
Where [11] appears, read: genetic background: wild type, temperature: 37 C.

AATNNLFIFSAL [CDC55 C-terminal 12 aa]: the protein stability index in the data set on Saccharomyces cerevisiae [1] (setting [4]) turned out to be 0.732 ± 0.0084; in the data set with Saccharomyces cerevisiae [1] (genetic background: wild type) it was 0.713 ± 0.073.
For the sequence “ACHMAKPLKLPT [YHR032C-A C-terminal 12 aa]”, the protein stability index with Saccharomyces cerevisiae [1] (setting [4]) was 0.679 ± 0.017; with Saccharomyces cerevisiae [1] (genetic background: wild type), 0.673 ± 0.029.
Consider ACILMAISQFNS [KSH1 C-terminal 12 aa], for which the protein stability index in the data set on Saccharomyces cerevisiae [1] (setting [4]) came out at 0.619 ± 0.013; with Saccharomyces cerevisiae [1] (genetic background: wild type), 0.6333 ± 0.0061.
On the same counts, the results for ADESKKEITTGR [MPC2 C-terminal 12 aa] are 0.714 ± 0.022 and 0.653 ± 0.018.
As for AEFFTKFDELVV [EHT1 C-terminal 12 aa], the protein stability index in the data set on Saccharomyces cerevisiae [1] (setting [4]) stood at 0.6616 ± 0.0027; with Saccharomyces cerevisiae [1] (genetic background: wild type), 0.666 ± 0.045.
On the same counts, the results for AEKRDALLKEDA [RPL19A C-terminal 12 aa] are 0.6845 ± 0.0059 and 0.699 ± 0.0074.
As to AFIFGNYKDILT [RGA1 C-terminal 12 aa], the figures for the protein stability index in the data set with Saccharomyces cerevisiae [1] (setting [4]) and in the data set on Saccharomyces cerevisiae [1] (genetic background: wild type) were 0.755 ± 0.01 and 0.7204 ± 0.0034, respectively.
For AHNFKVPETSKG [PAN2 C-terminal 12 aa], the results for the protein stability index with Saccharomyces cerevisiae [1] (setting [4]) and in the data set with Saccharomyces cerevisiae [1] (genetic background: wild type) were 0.696 ± 0.032 and 0.677 ± 0.022, respectively.
For AHQKEILHSVSN [YML6 C-terminal 12 aa], in that order: 0.695 ± 0.016 and 0.726 ± 0.034.
For AITLAWLAHALT [YHL037C C-terminal 12 aa], the protein stability index in the data set with Saccharomyces cerevisiae [1] (setting [4]) is 0.4375 ± 0.0012; in the data set with Saccharomyces cerevisiae [1] (genetic background: wild type), 0.39 ± 0.011.
For AITSAQELLDSK [RBL2 C-terminal 12 aa], in that order: 0.687 ± 0.024 and 0.72 ± 0.0079.
On to AKFFIPFSHSSP [YPL185W C-terminal 12 aa], for which the results for the protein stability index with Saccharomyces cerevisiae [1] (setting [4]) and in the data set on Saccharomyces cerevisiae [1] (genetic background: wild type) were 0.729 ± 0.01 and 0.705 ± 0.051, respectively.
On the same counts, the results for “AKTKFCCCIPFK [YOR376W-A C-terminal 12 aa]” are 0.7168 ± 0.0059 and 0.721 ± 0.078.
Consider ALDAEKYLTSLE [TRR1 C-terminal 12 aa], for which the protein stability index was determined as 0.707 ± 0.0079 in the data set on Saccharomyces cerevisiae [1] (setting [4]) and 0.695 ± 0.031 in the data set on Saccharomyces cerevisiae [1] (genetic background: wild type).
For ALDAERYLSAQE [TRR2 C-terminal 12 aa], the protein stability index in the data set with Saccharomyces cerevisiae [1] (setting [4]) was 0.698 ± 0.025; in the data set with Saccharomyces cerevisiae [1] (genetic background: wild type), 0.672 ± 0.015.
On to ALFKAAGGKIKK [YLF2 C-terminal 12 aa], for which the protein stability index is 0.6703 ± 0.0023 in the data set on Saccharomyces cerevisiae [1] (setting [4]) and 0.66 ± 0.011 in the data set on Saccharomyces cerevisiae [1] (genetic background: wild type).
As for ALHLLTKFTHII [SBH2 C-terminal 12 aa], the protein stability index in the data set on Saccharomyces cerevisiae [1] (setting [4]) worked out at 0.733 ± 0.012; in the data set with Saccharomyces cerevisiae [1] (genetic background: wild type) it was 0.167 ± 0.043.
For the sequence ALKKAARQVKKE [IFA38 C-terminal 12 aa], the protein stability index turned out to be 0.71 ± 0.0074 in the data set with Saccharomyces cerevisiae [1] (setting [4]) and 0.6713 ± 0.0036 in the data set with Saccharomyces cerevisiae [1] (genetic background: wild type).
In the case of ALNRSAIIKDDK [DDP1 C-terminal 12 aa], the protein stability index in the data set with Saccharomyces cerevisiae [1] (setting [4]) amounted to 0.703 ± 0.0071; with Saccharomyces cerevisiae [1] (genetic background: wild type), 0.708 ± 0.01.
With ALPLPDEDDADL [GSP1 C-terminal 12 aa], the protein stability index was determined as 0.673 ± 0.02 in the data set on Saccharomyces cerevisiae [1] (setting [4]) and 0.715 ± 0.011 in the data set on Saccharomyces cerevisiae [1] (genetic background: wild type).
For ALSKVGIYTIAN [PAU10 C-terminal 12 aa], the protein stability index in the data set on Saccharomyces cerevisiae [1] (setting [4]) is 0.702 ± 0.013; with Saccharomyces cerevisiae [1] (genetic background: wild type), 0.675 ± 0.042.
On the same counts, the results for ALWKEKKEKPRS [RPS23A C-terminal 12 aa] are 0.709 ± 0.01 and 0.687 ± 0.03.
Take ANDWKTYENMKK [SIP18 C-terminal 12 aa]: the protein stability index in the data set with Saccharomyces cerevisiae [1] (setting [4]) was found to be 0.7042 ± 0.0029; in the data set on Saccharomyces cerevisiae [1] (genetic background: wild type) it was 0.706 ± 0.041.
Consider ANEMADELSRYL [IRC6 C-terminal 12 aa], for which the protein stability index in the data set with Saccharomyces cerevisiae [1] (setting [4]) came to 0.724 ± 0.019; in the data set with Saccharomyces cerevisiae [1] (genetic background: wild type) it was 0.7344 ± 0.0047.
ANFNDFYDAFYN [RSC30 C-terminal 12 aa]: the protein stability index in the data set on Saccharomyces cerevisiae [1] (setting [4]) was determined as 0.732 ± 0.019; in the data set on Saccharomyces cerevisiae [1] (genetic background: wild type) it was 0.707 ± 0.026.
As to ANGRHPQPSITL [CDC33 C-terminal 12 aa], the protein stability index was 0.71 ± 0.016 in the data set with Saccharomyces cerevisiae [1] (setting [4]) and 0.709 ± 0.0097 in the data set on Saccharomyces cerevisiae [1] (genetic background: wild type).
As to APEFLDWLDEEN [HEM2 C-terminal 12 aa], the protein stability index is 0.738 ± 0.011 with Saccharomyces cerevisiae [1] (setting [4]) and 0.6793 ± 0.0033 with Saccharomyces cerevisiae [1] (genetic background: wild type).
Turning to “APNSNSSSGSVS [YFL013W-A C-terminal 12 aa]”, the figures for the protein stability index in the data set with Saccharomyces cerevisiae [1] (setting [4]) and with Saccharomyces cerevisiae [1] (genetic background: wild type) were 0.673 ± 0.026 and 0.66 ± 0.034, respectively.
As for AQGKLIMKVEGF [AST2 C-terminal 12 aa], the results for the protein stability index in the data set on Saccharomyces cerevisiae [1] (setting [4]) and with Saccharomyces cerevisiae [1] (genetic background: wild type) were 0.698 ± 0.03 and 0.72 ± 0.024, respectively.
Regarding AQLLLTLNEETS [CAF40 C-terminal 12 aa], the protein stability index amounted to 0.6844 ± 0.0028 with Saccharomyces cerevisiae [1] (setting [4]) and 0.695 ± 0.032 in the data set with Saccharomyces cerevisiae [1] (genetic background: wild type).
AQPSQSEKEKTK [LNP1 C-terminal 12 aa]: the values for the protein stability index in the data set with Saccharomyces cerevisiae [1] (setting [4]) and with Saccharomyces cerevisiae [1] (genetic background: wild type) were 0.679 ± 0.015 and 0.678 ± 0.04, respectively.
Regarding VVMASSIIVVAG, the protein stability index with Saccharomyces cerevisiae [2] was 0.2528 ± 0.001; in the data set with Saccharomyces cerevisiae [3] (setting [5]), 0.0539 ± 0.0055; in the data set with Saccharomyces cerevisiae [3] (setting [6]) it was 0.0512 ± 0.027; in the data set on Saccharomyces cerevisiae [3] (setting [7]) it was 0.11 ± 0.097; in the data set on Saccharomyces cerevisiae [3] (setting [8]), 0.216 ± 0.0022; in the data set on Saccharomyces cerevisiae [3] (setting [9]) it was 0.105 ± 0.029. Moreover, the results for the protein stability index with Saccharomyces cerevisiae [3] (setting [10]) and with Saccharomyces cerevisiae [3] (setting [11]) were 0.142 ± 0.058 and 0.167 ± 0.027, respectively.
As to VVVLFGRLVVIC, the protein stability index in the data set on Saccharomyces cerevisiae [2] stood at 0.431 ± 0.048; in the data set on Saccharomyces cerevisiae [3] (setting [5]), 0.48 ± 0.01; in the data set with Saccharomyces cerevisiae [3] (setting [6]) it was 0.611 ± 0.019; with Saccharomyces cerevisiae [3] (setting [7]), 0.448 ± 0.033; in the data set with Saccharomyces cerevisiae [3] (setting [8]), 0.598 ± 0.017; in the data set on Saccharomyces cerevisiae [3] (setting [9]), 0.327 ± 0.0075. The protein stability index in the data set on Saccharomyces cerevisiae [3] (setting [10]) worked out at 0.332 ± 0.029; with Saccharomyces cerevisiae [3] (setting [11]), 0.5402 ± 0.003.
In the case of VVVYWGSLKRVC, the protein stability index in the data set on Saccharomyces cerevisiae [2] is 0.263 ± 0.041; in the data set on Saccharomyces cerevisiae [3] (setting [5]) it was 0.5772 ± 0.0046; in the data set with Saccharomyces cerevisiae [3] (setting [6]), 0.669 ± 0.012; with Saccharomyces cerevisiae [3] (setting [7]) it was 0.584 ± 0.02; with Saccharomyces cerevisiae [3] (setting [8]), 0.7 ± 0.0057; in the data set on Saccharomyces cerevisiae [3] (setting [9]), 0.104 ± 0.0089. Further, the protein stability index in the data set on Saccharomyces cerevisiae [3] (setting [10]) turned out to be 0.117 ± 0.027; in the data set on Saccharomyces cerevisiae [3] (setting [11]) it was 0.289 ± 0.0064.
Take VWFCCLFFCFFV: the protein stability index worked out at 0.404 ± 0.028 in the data set with Saccharomyces cerevisiae [2]; 0.432 ± 0.021 with Saccharomyces cerevisiae [3] (setting [5]); 0.448 ± 0.0086 in the data set on Saccharomyces cerevisiae [3] (setting [6]); 0.378 ± 0.028 in the data set on Saccharomyces cerevisiae [3] (setting [7]); 0.47 ± 0.011 with Saccharomyces cerevisiae [3] (setting [8]); 0.4276 ± 0.0036 in the data set on Saccharomyces cerevisiae [3] (setting [9]). In addition, the protein stability index was determined as 0.367 ± 0.012 in the data set with Saccharomyces cerevisiae [3] (setting [10]) and 0.41 ± 0.012 with Saccharomyces cerevisiae [3] (setting [11]).
